# Results taken from the DeepSol protein solubility set.
# Test: soluble on expression in E. coli; label from the status in PepcDB or PDB records
row,Sequence,soluble on expression in E. coli
1,GMKRAVVVFSGGQDSTTCLIQALQDYDDVHCITFDYGQRHRAEIEVAQELSQKLGAAAHKVLDVGLLNELATSSLTRDSIPVPDYDANAQGIPNTFVPGRNILFLTLASIYAYQVGAEAVITGVCETDFSGYPDCRDEFVKALNQAIVLGIARDIRFETPLMWLNKAETWALADYYQQLDTVRYHTLTCYNGIKGDGCGQCAACHLRANGLAQYQKDAATVMASLKQKVGLR,soluble
2,MSLVMSMANKREPAPGWPIVSGEYVVGNPESCVGVVTLGSHGLEQACIDAGAAIAGPCHTENLGIEKVVANYISNPNIRFMILCGSEVQGHITGQCFKALWENGIGDDGGIIGAKGAIPFLENVNKEAVERFRRQIVEVVDLIDCEDIGKITQAIKECLSKDPGAIDEDPFIIELEGGKGGGEEEEGVIKPITPEMAIIESRMRLIGNEMCYNGLLAKWQAGYYNGKEGHHHHHH,not soluble
3,MANHELDQLRKQVDEINLQLLHLLNKRGEIVQKIGEQKQVQGTKRFDPVREREVLDMIAENNEGPFETSTVQHIFKTIFKASLELQEDDNRKALLVSRKKKQENTIVDVKGELIGNGTQTFIMGPCAVESLEQVRQVGQAMKDQGLKLMRGGAFKPRTSPYDFQGLGVEGLQILRQVADEFDLAIISEILNPNDVEMALDYVDVIQVGARNMQNFDLLRAVGKVNKPVLLKRGLAATIDEFINAAEYIIAQGNDQIILCERGIRTYERATRNTLDISAVPILKKETHLPVVVDVTHSTGRRDLLLPTAKAALAIGADAVMAEVHPDPAVALSDSAQQMDIPEFHRFMEELKGFKNKLS,not soluble
4,MNPTDWIDTGAVPPRPLPATVDAALAYLSEALGHPVYAHWTLARVKRRYGSLSDAKAAQPTVLKLLLAHDGAVEYWERGRLRTVPADQAPGPAMVLARLLHTHRRRFRLAASSGNAAAVPAASEAAGLVAAPWLAAYSHAEHTWLARAGRFAQLHAATNTLGVANDAQALALFLRDRTGRSPHTLRAYGAELRRLMRWCGVHEVGPLSDLTRQQLLAYRHTLQHGEPGTENASPQLSEATCTRALAVVASLYGYWYDTGYLQANPAAGLSAGSRARAGFAPTRLIPPALLDACDAWLDASAVDASLPALRRRAIWALYRYAGARLAELVWSDEAALPRLEAEVPGHWTLYVCGKGRKVRAIPLPVPCVAVLRAYRHARGLPPEPPAHEALPVIHGHKGEALQSAGLYREVKAIFAAVADGLQARDPAQALLLRAASPHWLRHAYARTLVVDHQVPLPAAQALLGHASVQTTAAYARTDLTQLRAFVDATFADDAPLEHHHHHH,not soluble
5,MKAVKPMTDNISVLIMGVDESEIRDKNYGKATRTDALLLATINKNDKSVKLVSIPRDSRVYIKSRDKYDKITHAHVFGGVDSTIDTVENFLDVPVDYYVKFNFKSFIKIVDSLGGITVDVPVEFTEQNSKDEADAVHLKKGRQHLNGEEALALARTRHIDSDYMRGQRQQLVLEAIAQKALSLNSINKIGGLLDAVDKDLKTNLTFDDMMTIAKNSMDSNLKMDKMQVEGTDKYIGGIYYYVPNEKSVNTISTTLQEHLGVTNKNEHKKLLEHHHHHH,soluble
6,MGLFASAPVDDGSMEIVRDFIQNMENDAQSSNKSAFADCFMDTFNFNVRGRIFTKALFVESYLTKPNPEPLILKSSIFTQGKNEIKFNVSHVVGPRTNIADFYLLREGEEGKWRLKSGIVIN,not soluble
7,MGPTQETYTIVRYQSGTFSKQLDEIVTESPITIKLNGEEYVTVVCTPNYIEDMVIGFLISEGIISSYNDVEELWVQKDNGIVHVKSSKVNPLYQTLYNKRYVTSCCGKGRQGFIFVNDAAKAKDLHDIHVKITPEECFYLMNTLQQSSTTFRQTGGVHNTALCDRNKILLSRMDIGRHNALDKIYGHCLRNDISVKGKIIAFSGRISSEILLKVSKIGCEIVLSKSAPTKLALQLAHDLGITVVGFIRNESCNIYTHPHRIDGYQSNNLEHHHHHH,soluble
8,MGSDKIHHHHHHMRGYFRADWTERVELSEHDIGELRFSLKNRLGEALLLTSQEDMLRYCRDWHGDVTSSAVAVIRPRSTKEVSDTVIACAELGLAIIPQGGNTGLVLGGIPDAPKHQVVLSLERMNAIRTIDSDDFSAVVEAGCILSEFKDAVQDKGMFFPLSLGAQGSCRIGGNVSTNAGGINVLRYGMTRELVLGLEVVLPDGTIWNGLSTLRKDNRGIDLKQLFIGAEGTLGIITAVAVKLYPNPEHVETALLGLNSLDDAIKLYRRARRECCDLMSAFEFMPPVAFTLAIEAIPDLKMPIAGDYPAYVLMEISGSGLVDTADLMGRFLEGVMEDGLVLDGVIASSRAQAQSLWLFREGMNEGQALRGSHMRTDISVPLSKLAAFVAEAEAELAEKLPECLAVSYGHVGDGNVHLNVLPPNGATLEEREAFIYKSKTLVNEVLDRYVGSISAEHGIGRLKRSDFESRLSDVQRRMITGLKNAFDPDLRMNPGCQITLQPDS,not soluble
9,MSTQNYPATGRLAEPEYGTLLVKNVKIYGEGEPVNVLITDGVITDTHAGDVKADREVDGQGGVLLPGLVDIHVHLREPGREDTETIATGSAAAAKGGFTAVFTMANTMPVMDQPIIAESVWHKGQDIGLCDVHPVGSITKGLEGKEITEFGMMAHSQAKVRMFSDDGKCVDNPLIMRRAVEYARGTDVLLAQHCEDPRLTDGAVAHEGAMAAKLGLGGWPRVAEESIVARDAILARDYGGRMHICHASTQGTVELVKWAKEHEIPLTAEVTPHHLLLTDERLATYDGVNRVNPPLRENSDILALRDALLNGTIDCVATDHAPHGSEDKCCEFEHAKPGMLGLETSLAVVAAVFVETGLADWRFVAKVMSERPAEIVKLPGHGRPIAVGEPANLTIVDPGAKWTASGEKMASKATNTPYEGMEFNARVTTTILRGRLTCVDGEPTQARA,not soluble
10,MGSDKIHHHHHHMARRYVVVGGGPAGVVCAETLRRQDAEGSITLVCAEPGPPYSRMAIPYAMSGKIDESGTWLRKDWGHYEALGIALLHDRVTGVDSGARQVRLESGAPLSYDALLIATGSSPARPRVPGLDLPGVHSCWTLEDLRRIDPLLKPGRRVLLLGAGFVSCIILQSLVQRGAKVTVSCGSSGRMVRSMMDETAGGMIMRWCRAKGVEVLTAGRPTAIEQRDSGLLVTLDSGKSAEADLVIVGTGVKTNTAFLEGSGIAIEDGIIVDQYLGTNVPGIWAAGDVAQGFNCCTGLTEVHAIQPTAVEHGRVAAMNMSGHPTPFGGSLSMNTLETLGLISCSFGQWMGAEGGKQVRMVDEEHFRYLRLEFQGDRLVGANTVGMTNEIGIIRGLIQTKLRLGEWLERLTQDPSRLAEAYVACAQGV,not soluble
11,PFLELDTNLPANRVPAGLEKRLCAAAASILGKPADRVNVTVRPGLAMALSGSTEPCAQLSISSIGVVGTAEDNRSHSAHFFEFLTKELALGQDRILIRFFPLESWQIGKIGTVMTFL,soluble
12,MAHHHHHHMNCPIVLKTLEQNKNFCVINPEAMDSCIYISLDYFKENLITSCTHKKPLPHTCNVKNEISGIKNLKTEQIELNEFIQEYYKRLIINDDEIMWNVCYFRKSKEFLTILLLEFLKSMLTVLNKYNGKCIFKKTEYLVNCGHHITHRIWIQMFYEYGFESVDADTKKNMKNYPIIQQEDGNNRTLYLTIADHYKWDA,not soluble
13,HKEFAVTMRPTEASERCHLRGSYTLRAGESALELWGGPEPGTQLYDWPYRFLRRFGRDKVTFSFEAGRRCVSGEGNFEFETRQGNEIFLALEEAISAQKN,soluble
14,SSPSSPADWAKKLTDAVLRQKAGETLTAADRDFSNADFRNITFSKILPPSFMERDGDIIKGFNFSNSKFTYSDISHLHFDECRFTYSTLSDVVCSNTKFSNSDMNEVFLQYSITTQQQPSFIDTTLKNTLIRHKANLSGVILNEPDNSSPPSVSGGGNFIRLGDIWLQMPLLWTENAVDGFLNHEHNNGKSILMTIDSLPDKYSQEKVQAMEDLVKSLRGGRLTEACIRPVESSLVSVLAHPPYTQSALISEWLGPVQERFFAHQCQTYNDVPLPAPDTYYQQRILPVLLDSFDRNSAAMTTHSGLFNQVILHCMTGVDCTDGTRQKAAALYEQYLAHPAVSPHIHNGLFGNYDGSPDWTTRAADNFLLLSSQDSDTAMMLSTDTLLTMLNPTPDTAWDNFYLLRAGENVSTAQISPVELFRHDFPVFLAAFNQQATQRRFGELIDIILSTEEHGELNQQFLAATNQKHSTVKLIDDASVSRLATIFDPLLPEGKLSPAHYQHILSAYHLTDATPQKQAETLFCLSTAFARYSSSAIFGTEHDSPPALRGYAEALMQKAWELSPAIFPSSEQFTEWSDRFHGLHGAFTCTSVVADSMQRHARKYFPSVLSSILPLAWA,soluble
15,MTSLVRGQNTPLTSPQLTVTVSGVTPGSVDLMVFQVTTTGNVRSDSDFVFFNQPASPEGAVRLTGPSTVDVDVTKVPHSIDRLRLAVSMDDSAPGSLAAIPGLGVTLGSVSAPALGLTTERAAVLAEIYRRGEQWKIRNVSAGWDTGLKALVTEHGVVVDDAPSHPPAPTYPSTPPAQPPAPVIAPPAPTPTPAPQPRVQRSKITLTKASPTVSLAKGGDTGTMRVNLNWTRGRRGLFGGNGAIDLDLACLYQLNDGSKGVVQALGNAFGDLHYPPYIALDGDDRSGTNAGGENLHINLAHLADFKRILIFAYIYDGTPNWSAADGIVTLYPPHGPEVEVRLDSPDNRARSCAIALLKNERNELTVTREVRYINGTQSDISKAYRWGLKWTAGRK,not soluble
16,MIMNIFLIKEADLVEAAEIISASFKNYEVMRYLFNDSGNDHEAHITEFFLAFYQFGLANNWPCYGVRVNEQWVAVALGCNSSEQEIIKGSDDALTEFYKKISPQACCRIEQYDQQADAAHPSKAHFFIDSIGTHPDHQGKGYAKALILKFQELSKSDVHSTGVGLNTESDNNINFYQHLGYQVKAQQKIGSLTSWSLFRTDD,not soluble
17,MGSDKIHHHHHHWQVTGSKTTLDGVEAARMSGIESYPLRLEPELVCEADDLDALLDVDALVITLPARRSGPGEDFYLQAMQELVDSALAYRIPRIIFTSSTSVYGDAQGVVKENTPRNPVTASGRTLKELEDWLHNLPGTSVDILRLAGLVGPGRHPGRFFAGKTAPDGQHGVNLVHLEDVVGAITLLLQAPKGGHIYNICAPAHPARNVFYPQMTRLLGMAPPHFRDAPDNGKGKIIDGSRICNELGFEYQYPDPLVMPME,not soluble
18,MSAKQKELERLLELKKKQEEQQVLNQKDMLERIKLENKYMEFLQMTSQQMEEELKKRGPVKEVEVKGKDIDPIIADYKKLYSKESWYKEPETKDGKTHLTFPSQEAAGTFFKDQAEKNRSFIVIDAATNKVLAYSNGDGKLYNGNGSLYQGGDFKASKEDFTSFKMPEREEPKMGMQL,not soluble
19,MTNITASIVLYNNPIDQIRQCIESMQADTRVHVLLVDNSEKKGGYTGLAADNVEILDAPGNVGFGRGHNLVLGRLAALRSEVHLVVNPDIVVSAGCVQAVADVLRQRKDVTLVGPRVVSPDGALYRSCKLLPTPWNLFARRFAPRQLYAAADARYELEAFGYDRELRLHNLSGAFLAFRSEAFTALGGFDPRYFMYLEDVDICRRAAGLGAVIFLPQAEVVHEHGKGSYRSWRLLREHMRSAILYFNRFGWFVDAERRLLNRETLARVNDMRSVVLEHHHHHH,not soluble
20,MGLFQSDKAAEEIDPPQDVTFVNDEAGANSNTTAAKKTESEKSDTAKADQASSTVMRELYLIDKNGYVVAQTLPLPKSESTAKQALEYLVQGGPVSEILPNGFRAVLPADTTVNVDIKKDGTAIADFSNEFKNYKKEDEQKIVQSVTWTLTQFSSIDKVKLRINGHELKEMPVGGTPISDDLSRKDGINLETAGVNDLTATHPLTVYYLAENEDSEYYVPVTKRIDNSEKDDITAAINELAKGPSKVSGLLTDFSEDVKLVSKPKIKDGRVTLDFNQSIFGSADEKTKMISSEVLNSIVLTLTEQPDVKSVSVKVNGKSELVNEKGEKLTEPVSRPSQVNTGSFLEHHHHHH,soluble
